According to the supplement of paper PMC10201428:
± gives the standard deviation of the averaged measurements.

How the values were obtained:
[1] = tested on: VchCAST RNA-guided transposition machinery (E. coli BL21(DE3) host, lacZ target); assay: relative integration efficiency (T-RL orientation) vs wild-type transposon end (log2 (normalized fold change)); transposon end mutated: right end (5 bp flank + 75 bp right end); higher = more efficient transposition
In short: (§1)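 Co-transformation of E. coli BL21(DE3) combined a pUC57 mini-transposon donor, holding barcoded pools of 1549 left-end or 1849 right-end variants, with a T7-driven plasmid encoding a CRISPR array, tniQ-cas8-cas7-cas6 and tnsA-tnsB-tnsC. After plating with 0.1 mM IPTG at 37°C for 18 h, input plasmids and genomic integration junctions were PCR-amplified and Illumina-sequenced across two biological output replicates, with four reference barcodes. Relative integration efficiency is the normalised, log-transformed output/input barcode fold change.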

[2] = tested on: VchCAST RNA-guided transposition machinery (E. coli BL21(DE3) host, lacZ target); assay: relative integration efficiency (T-LR orientation) vs wild-type transposon end (log2 (normalized fold change)); transposon end mutated: right end (5 bp flank + 75 bp right end); higher = more efficient transposition
In short: as §1

Sequence	relative integration efficiency (log2) [1]	relative integration efficiency (log2) [2]
ACATTTGTTGATACAACCATAAAATGATAATTACACCCATAAATACATAATTATCACACCCATAAATTGATATTGCCTCTGATCATAGTCAGACCAACATTGCTACGACCCGTATTCGCACCGACAC	-0.763 ± 0.18	-0.737 ± 0.026
ACATTTGTTGATACAACCATAAAATGATAATTACACCCATAAATACTAAATTATCACACCCATAAATTGATATTGCCTCTGATCATAGTCAGACCAACATTGCTACGACCCGTATTCGCACCGACAC	-1.56 ± 0.23	-1.26 ± 0.24
ACATTTGTTGATACAACCATAAAATGATAATTACACCCATAAATCTGAAATTATCACACCCATAAATTGATATTGCCTCTGATCATAGTCAGACCAACATTGCTACGACCCGTATTCGCACCGACAC	-0.888 ± 0.057	-1.08 ± 0.29
ACATTTGTTGATACAACCATAAAATGATAATTACACCCATAAATGGATAATTATCACCCCCAATTTAACTATAACGCTCTGATCATAGTCAGACCAACATTGCTACGACCCGTATTCGCACCGACAC	-1.3 ± 0.18	1.64 ± 0.048
ACATTTGTTGATACAACCATAAAATGATAATTACACCCATAAATGGATCATTATCACACCCAATTTAACTATAACGCTCTGATCATAGTCAGACCAACATTGCTACGACCCGTATTCGCACCGACAC	-1.63 ± 0.33	1.07 ± 0.2
ACATTTGTTGATACAACCATAAAATGATAATTACACCCATAAATGGATCATTATCACCCCCAATTTAACTATAACGCTCTGATCATAGTCAGACCAACATTGCTACGACCCGTATTCGCACCGACAC	-1.44 ± 0.18	1.15 ± 0.28
ACATTTGTTGATACAACCATAAAATGATAATTACACCCATAAATGGATTATTATCACACCCAATTTAACTATAACGCTCTGATCATAGTCAGACCAACATTGCTACGACCCGTATTCGCACCGACAC	-1.59 ± 0.23	0.865 ± 0.44
ACATTTGTTGATACAACCATAAAATGATAATTACACCCATAAATGTATAATTATCACACCCATAAATTGATATTGCCTCTGATCATAGTCAGACCAACATTGCTACGACCCGTATTCGCACCGACAC	-0.553 ± 0.026	-1.04 ± 0.38
ACATTTGTTGATACAACCATAAAATGATAATTACACCCATAAATGTCGAATTATCACACCCATAAATTGATATTGCCTCTGATCATAGTCAGACCAACATTGCTACGACCCGTATTCGCACCGACAC	-1.83 ± 0.081	-2.54 ± 0.58
ACATTTGTTGATACAACCATAAAATGATAATTACACCCATAAATGTCGCCGGCGACACAAACGCCCGGTCGCGGTAAGAGGATCATAGTCAGACCAACATTGCTACGACCCGTATTCGCACCGACAC	-1.73 ± 0.3	1 ± 0.17
ACATTTGTTGATACAACCATAAAATGATAATTACACCCATAAATTCATAATTATCACCCCCAATTTAACTATAACGCTCTGATCATAGTCAGACCAACATTGCTACGACCCGTATTCGCACCGACAC	-1.95 ± 0.33	1.06 ± 0.079
ACATTTGTTGATACAACCATAAAATGATAATTACACCCATAAATTCATCATTATCACACCCAATTTAACTATAACGCTCTGATCATAGTCAGACCAACATTGCTACGACCCGTATTCGCACCGACAC	-2.36 ± 0.48	1.42 ± 0.023
ACATTTGTTGATACAACCATAAAATGATAATTACACCCATAAATTCATCATTATCACCCCCAATTTAACTATAACGCTCTGATCATAGTCAGACCAACATTGCTACGACCCGTATTCGCACCGACAC	-1.8 ± 0.25	1.45 ± 0.16
ACATTTGTTGATACAACCATAAAATGATAATTACACCCATAAATTCATTATTATCACACCCAATTTAACTATAACGCTCTGATCATAGTCAGACCAACATTGCTACGACCCGTATTCGCACCGACAC	-2.74 ± 0.49	0.845 ± 0.28
ACATTTGTTGATACAACCATAAAATGATAATTACACCCATAAATTCTATATTATCACACCCATAAATTGATATTGCCTCTGATCATAGTCAGACCAACATTGCTACGACCCGTATTCGCACCGACAC	-2.002 ± 0.013	-0.688 ± 0.11
ACATTTGTTGATACAACCATAAAATGATAATTACACCCATAAATTCTTAATTATCACACCCATAAATTGATATTGCCTCTGATCATAGTCAGACCAACATTGCTACGACCCGTATTCGCACCGACAC	-1.43 ± 0.18	-1.33 ± 0.28
ACATTTGTTGATACAACCATAAAATGATAATTACACCCATAAATTGAATATTATCACACCCATAAATTGATATTGCCTCTGATCATAGTCAGACCAACATTGCTACGACCCGTATTCGCACCGACAC	-1.1 ± 0.27	-0.409 ± 0.19
ACATTTGTTGATACAACCATAAAATGATAATTACACCCATAAATTGAATTATATCACACCCATAAATTGATATTGCCTCTGATCATAGTCAGACCAACATTGCTACGACCCGTATTCGCACCGACAC	-1.65 ± 0.026	-0.447 ± 0.17

Sequence	relative integration efficiency (log2) [1]	relative integration efficiency (log2) [2]
ACATTTGTTGATACAACCATAAAATGATAATTACACCCATAAATTGAGCATTATCACACCCATAAATTGATATTGCCTCTGATCATAGTCAGACCAACATTGCTACGACCCGTATTCGCACCGACAC	-0.525 ± 0.0063	-0.422 ± 0.13
ACATTTGTTGATACAACCATAAAATGATAATTACACCCATAAATTGAGCCGGCGACACAAACGCCCGGTCGCGGTAAGAGGATCATAGTCAGACCAACATTGCTACGACCCGTATTCGCACCGACAC	-1.02 ± 0.23	1.83 ± 0.037
ACATTTGTTGATACAACCATAAAATGATAATTACACCCATAAATTGAGCCGTATCACACCCATAAATTGATATTGCCTCTGATCATAGTCAGACCAACATTGCTACGACCCGTATTCGCACCGACAC	-1.03 ± 0.093	-1.21 ± 0.12
ACATTTGTTGATACAACCATAAAATGATAATTACACCCATAAATTGATAAAAATCACACCCATAAATTGATATTGCCTCTGATCATAGTCAGACCAACATTGCTACGACCCGTATTCGCACCGACAC	-0.355 ± 0.081	0.324 ± 0.4
ACATTTGTTGATACAACCATAAAATGATAATTACACCCATAAATTGATAAAATACACACCCATAAATTGATATTGCCTCTGATCATAGTCAGACCAACATTGCTACGACCCGTATTCGCACCGACAC	-0.37 ± 0.071	-0.0186 ± 0.38
ACATTTGTTGATACAACCATAAAATGATAATTACACCCATAAATTGATAAGGATCACACCCATAAATTGATATTGCCTCTGATCATAGTCAGACCAACATTGCTACGACCCGTATTCGCACCGACAC	-0.665 ± 0.083	-0.0336 ± 0.22
ACATTTGTTGATACAACCATAAAATGATAATTACACCCATAAATTGATAAGGCGACACAAACGCCCGGTCGCGGTAAGAGGATCATAGTCAGACCAACATTGCTACGACCCGTATTCGCACCGACAC	-0.882 ± 0.14	2.27 ± 0.23
ACATTTGTTGATACAACCATAAAATGATAATTACACCCATAAATTGATAAGGCGCACACCCATAAATTGATATTGCCTCTGATCATAGTCAGACCAACATTGCTACGACCCGTATTCGCACCGACAC	-0.436 ± 0.083	-0.0146 ± 0.0051
ACATTTGTTGATACAACCATAAAATGATAATTACACCCATAAATTGATAATAATGACACCGAATTTAACTATAACGCTCTGATCATAGTCAGACCAACATTGCTACGACCCGTATTCGCACCGACAC	1.54 ± 0.64	5.35 ± 0.24
ACATTTGTTGATACAACCATAAAATGATAATTACACCCATAAATTGATAATATAGACACCCATAAATTGATATTGCCTCTGATCATAGTCAGACCAACATTGCTACGACCCGTATTCGCACCGACAC	-0.321 ± 0.15	-0.0877 ± 0.52
ACATTTGTTGATACAACCATAAAATGATAATTACACCCATAAATTGATAATATTCACACCCATAAATTGATATTGCCTCTGATCATAGTCAGACCAACATTGCTACGACCCGTATTCGCACCGACAC	-0.274 ± 0.23	-0.107 ± 0.095
ACATTTGTTGATACAACCATAAAATGATAATTACACCCATAAATTGATAATCACACCCATAAATTGATATTGCCTCTGATCATAGTCAGACCAACATTGCTACGACCCGTATTCGCACCGACACTGA	-1.32 ± 0.31	1.82 ± 0.057
ACATTTGTTGATACAACCATAAAATGATAATTACACCCATAAATTGATAATGATGACACCGAATTTAACTATAACGCTCTGATCATAGTCAGACCAACATTGCTACGACCCGTATTCGCACCGACAC	-1.34 ± 0.27	2.06 ± 0.097
ACATTTGTTGATACAACCATAAAATGATAATTACACCCATAAATTGATAATGCGAACACCCATAAATTGATATTGCCTCTGATCATAGTCAGACCAACATTGCTACGACCCGTATTCGCACCGACAC	-0.292 ± 0.045	0.16 ± 0.083
ACATTTGTTGATACAACCATAAAATGATAATTACACCCATAAATTGATAATGCGACACAAACGCCCGGTCGCGGTAAGAGGATCATAGTCAGACCAACATTGCTACGACCCGTATTCGCACCGACAC	-0.485 ± 0.11	2.69 ± 0.1
ACATTTGTTGATACAACCATAAAATGATAATTACACCCATAAATTGATAATGCTCACACCCATAAATTGATATTGCCTCTGATCATAGTCAGACCAACATTGCTACGACCCGTATTCGCACCGACAC	-0.488 ± 0.1	0.654 ± 0.025
ACATTTGTTGATACAACCATAAAATGATAATTACACCCATAAATTGATAATTAAAACACCCATAAATTGATATTGCCTCTGATCATAGTCAGACCAACATTGCTACGACCCGTATTCGCACCGACAC	-0.399 ± 0.27	0.089 ± 0.23
